Test system: Escherichia coli TOP10
Assay: shrunken log2 fold change of peptide-encoding DNA abundance (4.5 h post-induction vs induction); higher = less antimicrobial activity (less host growth inhibition)
Settings: time post-induction: 4.5 h; library: site-saturation at positions 5, 18, 19, 20
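Further: peptides expressed intracellularly from a pBAD plasmid library in pooled LB shake-flask culture, induced with 0.3% L-arabinose, DNA abundance read by NGS, three biological replicates, DESeq2 with apeglm shrinkage.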

RRIRHRPPRLPRPRPRPTTAPRP
shrunken log2 fold change: 0.0968

RRIRHRPPRLPRPRPRPTTEPRP
shrunken log2 fold change: -0.0115

RRIRHRPPRLPRPRPRPTTHPRP
shrunken log2 fold change: 0.0467

RRIRHRPPRLPRPRPRPTTPPRP
shrunken log2 fold change: 0.0328

RRIRHRPPRLPRPRPRPTTQPRP
shrunken log2 fold change: -0.0335

RRIRHRPPRLPRPRPRPTTWPRP
shrunken log2 fold change: -0.182

RRIRHRPPRLPRPRPRPTVGPRP
shrunken log2 fold change: 0.0689

RRIRHRPPRLPRPRPRPTVHPRP
shrunken log2 fold change: -0.755

RRIRHRPPRLPRPRPRPTWMPRP
shrunken log2 fold change: 3.02

RRIRHRPPRLPRPRPRPTYEPRP
shrunken log2 fold change: 0.15

RRIRHRPPRLPRPRPRPVAMPRP
shrunken log2 fold change: -0.123

RRIRHRPPRLPRPRPRPVCEPRP
shrunken log2 fold change: 0.0977

RRIRHRPPRLPRPRPRPVCFPRP
shrunken log2 fold change: -0.0341

RRIRHRPPRLPRPRPRPVCRPRP
shrunken log2 fold change: -0.3

RRIRHRPPRLPRPRPRPVCWPRP
shrunken log2 fold change: 0.268

RRIRHRPPRLPRPRPRPVDPPRP
shrunken log2 fold change: -0.0989

RRIRHRPPRLPRPRPRPVDYPRP
shrunken log2 fold change: -0.253

RRIRHRPPRLPRPRPRPVFIPRP
shrunken log2 fold change: -0.493

RRIRHRPPRLPRPRPRPVFRPRP
shrunken log2 fold change: 0.0291

RRIRHRPPRLPRPRPRPVGMPRP
shrunken log2 fold change: -0.63

RRIRHRPPRLPRPRPRPVKLPRP
shrunken log2 fold change: -0.438

RRIRHRPPRLPRPRPRPVKWPRP
shrunken log2 fold change: 0.421

RRIRHRPPRLPRPRPRPVMDPRP
shrunken log2 fold change: 0.153

RRIRHRPPRLPRPRPRPVMEPRP
shrunken log2 fold change: 0.105

RRIRHRPPRLPRPRPRPVSQPRP
shrunken log2 fold change: 0.114

RRIRHRPPRLPRPRPRPVSTPRP
shrunken log2 fold change: -0.263

RRIRHRPPRLPRPRPRPVTPPRP
shrunken log2 fold change: -0.00938

RRIRHRPPRLPRPRPRPVVEPRP
shrunken log2 fold change: -0.0145

RRIRHRPPRLPRPRPRPVWSPRP
shrunken log2 fold change: -0.103

RRIRHRPPRLPRPRPRPWAKPRP
shrunken log2 fold change: -0.235

RRIRHRPPRLPRPRPRPWARPRP
shrunken log2 fold change: -0.00568

RRIRHRPPRLPRPRPRPWCAPRP
shrunken log2 fold change: -0.145

RRIRHRPPRLPRPRPRPWCFPRP
shrunken log2 fold change: -0.688

RRIRHRPPRLPRPRPRPWCGPRP
shrunken log2 fold change: -0.181

RRIRHRPPRLPRPRPRPWCKPRP
shrunken log2 fold change: -0.111

RRIRHRPPRLPRPRPRPWCVPRP
shrunken log2 fold change: -0.386

RRIRHRPPRLPRPRPRPWDFPRP
shrunken log2 fold change: -0.0612

RRIRHRPPRLPRPRPRPWDWPRP
shrunken log2 fold change: -0.00132

RRIRHRPPRLPRPRPRPWEEPRP
shrunken log2 fold change: -0.0121

RRIRHRPPRLPRPRPRPWETPRP
shrunken log2 fold change: -0.141

RRIRHRPPRLPRPRPRPWKGPRP
shrunken log2 fold change: -0.0165

RRIRHRPPRLPRPRPRPWKVPRP
shrunken log2 fold change: -0.0338

RRIRHRPPRLPRPRPRPWKYPRP
shrunken log2 fold change: -0.253

RRIRHRPPRLPRPRPRPWMFPRP
shrunken log2 fold change: -0.119

RRIRHRPPRLPRPRPRPWMGPRP
shrunken log2 fold change: -0.205

RRIRHRPPRLPRPRPRPWQIPRP
shrunken log2 fold change: -0.453

RRIRHRPPRLPRPRPRPWRIPRP
shrunken log2 fold change: -0.0502

RRIRHRPPRLPRPRPRPWSHPRP
shrunken log2 fold change: 0.0143

RRIRHRPPRLPRPRPRPWSPPRP
shrunken log2 fold change: -0.697

RRIRHRPPRLPRPRPRPWVHPRP
shrunken log2 fold change: -0.179

RRIRHRPPRLPRPRPRPWYEPRP
shrunken log2 fold change: -1.06

RRIRHRPPRLPRPRPRPWYIPRP
shrunken log2 fold change: -0.549

RRIRHRPPRLPRPRPRPYAPPRP
shrunken log2 fold change: -0.737

RRIRHRPPRLPRPRPRPYAWPRP
shrunken log2 fold change: -0.0931

RRIRHRPPRLPRPRPRPYCLPRP
shrunken log2 fold change: -0.524

RRIRHRPPRLPRPRPRPYDEPRP
shrunken log2 fold change: -0.0392

RRIRHRPPRLPRPRPRPYEDPRP
shrunken log2 fold change: -0.336

RRIRHRPPRLPRPRPRPYEGPRP
shrunken log2 fold change: -0.0203

RRIRHRPPRLPRPRPRPYERPRP
shrunken log2 fold change: -0.00674

RRIRHRPPRLPRPRPRPYFSPRP
shrunken log2 fold change: -0.129

— the supplement of paper PMC9112550, “Optimization of the antimicrobial peptide Bac7 by deep mutational scanning” (BMC Biology, 2022)
